Holding throughout (assay): fluorescence polarisation
For orientation: In fluorescence polarisation assays a small probe gives low polarisation when free and higher when bound to something large.

The target of assay [1] is GpIBα-ctp (3), N-fluorescein-labeled C-terminal hexaphosphopeptide of GpIBα.
In assay [2] the target is ERα-ctp (1), N-fluorescein-labeled C-terminal hexaphosphopeptide of ERα.
Assay [3] has as its target Task3-ctp (2), N-fluorescein-labeled C-terminal hexaphosphopeptide of Task3.
Assay [4] deals with GpIBα-ctp (3), N-fluorescein-labeled C-terminal hexaphosphopeptide of GpIBα. This is another data set of the same source.
The target of assay [5] is Task3-ctp (2), N-fluorescein-labeled C-terminal hexaphosphopeptide of Task3. The source holds these as a separate data set.
In assay [6] the target is ERα-ctp (1), N-fluorescein-labeled C-terminal hexaphosphopeptide of ERα. The source holds these as a separate data set.

Like-named read-outs stand apart in the source and are kept apart here.

A word on the Kd: it is the constant that tells how readily two partners part at equilibrium. Lower therefore signals a tighter complex. As to “human 14-3-3β (from UniProt P31946 1-246) (natural protein)”, the equilibrium dissociation constant (Kd) worked out at 870 nM in assay [1], 720 nM in assay [2], 2400 nM in assay [3] and 18 µM in assay [4].
Regarding “human 14-3-3ε (from UniProt P62258 1-255) (natural protein)”, the Kd in assay [5] is 160 nM; in assay [1], 1700 nM; in assay [2], 3400 nM; in assay [3] it was 6000 nM; in assay [4], 28 µM.
With “human 14-3-3ζ (from UniProt P63104 1-245) (natural protein)”, the Kd in assay [2] worked out at 1500 nM; in assay [3], 1300 nM; in assay [4] it was 20 µM.

B1: human 14-3-3τ (natural protein)
chain: MEKTELIQKAKLAEQAERYDDMATCMKAVTEQGAELSNEERNLLSVAYKNVVGGRRSAWRVISSIEQKTDTSDKKLQLIKDYREKVESELRSICTTVLELLDKYLIANATNPESKVFYLKMKGDYFRYLAEVACGDDRKQTIDNSQGAYQEAFDISKKEMQPTHPIRLGLALNFSVFYYEILNNPELACTLAKTAFDEAIAELDTLNEDSYKDSTLIMQLLRDNLTLWTSDSAGEECDAAEGAEN
As to B1, the dissociation constant Kd in assay [6] was determined as 130 nM; in assay [2], 1100 nM; in assay [3], 2200 nM; in assay [4], 20 µM.

B2: human 14-3-3σ (natural protein)
chain: MERASLIQKAKLAEQAERYEDMAAFMKGAVEKGEELSCEERNLLSVAYKNVVGGQRAAWRVLSSIEQKSNEEGSEEKGPEVREYREKVETELQGVCDTVLGLLDSHLIKEAGDAESRVFYLKMKGDYYRYLAEVATGDDKKRIIDSARSAYQEAMDISKKEMPPTNPIRLGLALNFSVFHYEIANSPEEAISLAKTTFDEAMADLHTLSEDSYKDSTLIMQLLRDNLTLWTADNAGEEGGEAPQEPQS
Regarding B2, the Kd in assay [2] stood at 6600 nM; in assay [3], 2100 nM; in assay [4] it was 47 µM.

These data come from publication PMC7542595.
